Measured values published in US20250121087A1 (INTOCELL, published 2025).

Experiments:
[1] = biological target: T1, Mouse B7-H3 (Sino biological Inc.) (mouse, UniProt Q8VE98 29-244, limits assumed); test: SPR (Biacore 8K), antibody captured on anti-human Fc, antigen as analyte, 1:1 fit
T1 sequence (looked up): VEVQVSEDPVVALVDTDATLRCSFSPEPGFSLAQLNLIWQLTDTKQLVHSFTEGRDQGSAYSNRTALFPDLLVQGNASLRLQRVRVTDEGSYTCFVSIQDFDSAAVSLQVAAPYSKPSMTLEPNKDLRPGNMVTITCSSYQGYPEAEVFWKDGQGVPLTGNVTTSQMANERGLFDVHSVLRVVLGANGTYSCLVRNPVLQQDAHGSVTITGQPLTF
Method: (§1) A Biacore 8K (GE Life science) instrument was used to measure the binding kinetics about several B7-H3 variants (analyte) binding to various mAbs (ligands). Antibodies were captured onto the immobilized anti-human Fc antibody (GE Life science). […] For binding kinetic measurements, the HBS-EP+ was used for running buffer (10 mM Hepes, pH7.4, 150 mM NaCl, 3 mM EDTA, 0.05% polysorbate20). […] After capturing ligand, various B7-H3 antigens were analyzed for 120 s and the dissociation was monitored for 600 s at a flow rate of 30 ul/min. […] For the kinetic analysis, 5 points of 2-fold diluted analytes were flown over the captured ligand ranging from 20 nM of human 4Ig B7-H3 (Y-Biologics Inc.), 320 nM of human 2Ig B7-H3 (Acrobiosystems), 40 nM of cynomolgus monkey B7-H3 (Sino biological Inc.), and 160 nM of mouse B7-H3 (Sino biological Inc.). Kinetic information was calculated by fitting data to a 1:1 binding model using Biacore Insight Evaluation software (GE Life Science) to determine ka (association constant), kd (dissociation constant), and KD (equilibrium dissociation constant).

[2] = biological target: T2, Human 4IgB7-H3 (Y-Biologics Inc.) (human, UniProt Q5ZPR3 29-466, limits assumed); test: as above
T2 construct: 4Ig isoform
T2 sequence (looked up): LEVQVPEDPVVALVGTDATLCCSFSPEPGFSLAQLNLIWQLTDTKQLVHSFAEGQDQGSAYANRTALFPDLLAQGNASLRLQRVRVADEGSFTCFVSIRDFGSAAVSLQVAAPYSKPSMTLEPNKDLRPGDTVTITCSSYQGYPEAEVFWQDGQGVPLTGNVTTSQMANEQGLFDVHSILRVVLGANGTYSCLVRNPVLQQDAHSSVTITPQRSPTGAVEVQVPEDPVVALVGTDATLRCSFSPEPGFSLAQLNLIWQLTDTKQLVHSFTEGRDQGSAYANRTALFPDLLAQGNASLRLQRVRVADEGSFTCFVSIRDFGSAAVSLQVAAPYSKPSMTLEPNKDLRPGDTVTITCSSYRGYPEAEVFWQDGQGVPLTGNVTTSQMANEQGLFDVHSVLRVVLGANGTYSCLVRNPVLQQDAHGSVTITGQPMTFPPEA
Method: as §1

[3] = biological target: T3, Cyno B7-H3 (Sino biological Inc.) (cynomolgus monkey); test: as above
T3 construct: also called cynomolgus monkey B7-H3
Method: as §1

[4] = biological target: T4, Human 2IgB7-H3 (Acrobiosystems) (human, UniProt Q5ZPR3-2 29-245, limits assumed); test: as above
T4 construct: 2Ig isoform (the short splice form of the same UniProt entry)
T4 sequence (looked up): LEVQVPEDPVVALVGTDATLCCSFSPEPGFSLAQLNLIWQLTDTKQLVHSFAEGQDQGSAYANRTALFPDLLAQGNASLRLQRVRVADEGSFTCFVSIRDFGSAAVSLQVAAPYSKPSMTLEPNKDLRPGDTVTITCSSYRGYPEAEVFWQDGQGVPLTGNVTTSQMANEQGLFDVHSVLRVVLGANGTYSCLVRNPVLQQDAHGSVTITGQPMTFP
Method: as §1

[5] = biological target: T5, human B7-H3 (Y-Biologics Inc.) (human, UniProt Q5ZPR3 29-466); test: BLI (Octet QKe), antibody on AHC biosensor, human B7-H3 as analyte, 1:1 global fit
T5 chain: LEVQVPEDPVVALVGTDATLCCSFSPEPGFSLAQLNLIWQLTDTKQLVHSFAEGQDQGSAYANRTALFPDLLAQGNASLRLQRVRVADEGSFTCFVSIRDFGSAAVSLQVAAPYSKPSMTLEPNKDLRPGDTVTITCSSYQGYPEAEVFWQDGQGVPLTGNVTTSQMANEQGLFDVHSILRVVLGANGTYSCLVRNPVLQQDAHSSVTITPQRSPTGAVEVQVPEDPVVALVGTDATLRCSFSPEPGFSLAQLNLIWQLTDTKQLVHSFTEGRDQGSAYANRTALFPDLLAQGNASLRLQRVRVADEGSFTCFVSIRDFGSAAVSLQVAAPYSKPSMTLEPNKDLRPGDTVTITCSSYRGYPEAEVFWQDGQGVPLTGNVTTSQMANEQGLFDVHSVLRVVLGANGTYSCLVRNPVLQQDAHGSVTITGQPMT

Row | Binder | Kd [1] | koff [1] | kon [1] | Kd [2] | koff [2] | kon [2] | Kd [3] | koff [3] | kon [3] | Kd [4] | koff [4] | kon [4] | Kd [5] | koff [5] | kon [5]
1 | AB2 (SA2107, CD276-040F10) (antibody, human IgG1, V domains shown, Whole human IgG) VH: QVQLVESGAEVKKPGASVKLSCKASGYTFSSYWMHWVRQAPGQRLEWMGEINPGNGHTNYNEKFKSRVTITVDKSASTAYMELSSLRSEDTAVYYCVADPRRPKVPTALFVYWGQGTLVTVSS VL: DIQMTQSPSSVSASVGDRVTISCRASQGIGTWLAWYQQKPGKAPRLLIYAASSLDSGVPSRFSASGSGTDFTLTISSLQPEDFATYYCQQAINFPITFGQGTRLEIK | 47.3 nM | 0.0193 s⁻¹ | 408000 M⁻¹ s⁻¹ | 0.446 nM | 0.000199 s⁻¹ | 446000 M⁻¹ s⁻¹ | 0.919 nM | 0.000442 s⁻¹ | 481000 M⁻¹ s⁻¹ | 25 nM | 0.00515 s⁻¹ | 206000 M⁻¹ s⁻¹ | 0.05 nM | 4e-05 s⁻¹ | 700000 M⁻¹ s⁻¹
2 | AB7 (SA2571, CD276-039C05_LS_002D03) (antibody, human IgG1, V domains shown, Whole human IgG; also called CD276-39C05_LS_002D03) VH: QVQLVESGAEVKKPGSSVKVSCKASGGTFSSYAISWVRQAPGQGLEWMGRIIPILGIANYAQKFQGRVTITADKSTSTAYMELSSLRSEDTAVYYCANGGDSSSWYTFDYWGQGTLITVSS VL: DIQMTQSPSTLSASVGDRVTITCRASETISSWLAWYQQKPGKAPKLLIYKASSLQSGVPSRFSGSGSGTEFTLTISSLQPDDFATYYCQQYYSYPITFGQGTRLEIK | – | – | – | – | – | – | – | – | – | – | – | – | 0.3 nM | 0.0005 s⁻¹ | 2e+06 M⁻¹ s⁻¹
3 | AB8 (SA2579, CD276-039C05_LS_002H07) (antibody, human IgG1, V domains shown, Whole human IgG; also called CD276-39C05-LS-002H07) VH: QVQLVESGAEVKKPGSSVKVSCKASGGTFSSYAISWVRQAPGQGLEWMGRIIPILGIANYAQKFQGRVTITADKSTSTAYMELSSLRSEDTAVYYCANGGDSSSWYTFDYWGQGTLITVSS VL: DIQMTQSPSTLSASVGDRVTITCRASQSIDNWLAWYQQKPGKAPKLLIYKASSLQSGVPSRFSGSGSGTEFTLTISSLQPDDFASYYCQQYDSNPLTFGGGTKVEIK | – | – | – | – | – | – | – | – | – | – | – | – | 0.3 nM | 0.0003 s⁻¹ | 900000 M⁻¹ s⁻¹
4 | AB9 (SC0041, CD276-m8524), control anti-B7-H3 antibody (antibody, human IgG1, V domains shown, Control antibody produced by the applicants; Human IgG1, Kappa-T2S) VH: QVQLQQSGAEVKKPGSSVKVSCKASGGTFSSYAISWVRQAPGQGLEWMGGIIPILGIANYAQKFQGRVTITADESTSTAYMELSSLRSEDTAVYYCARGGSGSYHMDVWGKGTTVTVSS VL: EIVLTQSPATLSLSPGERATLSCRASQSVSSYLAWYQQKPGQAPRLLIYDASNRATGIPARFSGSGSGTDFTLTISSLEPEDFAVYYCQQRSNWPPRITFGQGTRLEIKR | 49 nM | 0.0294 s⁻¹ | 600000 M⁻¹ s⁻¹ | 0.518 nM | 0.000617 s⁻¹ | 1.19e+06 M⁻¹ s⁻¹ | 0.278 nM | 0.000242 s⁻¹ | 871000 M⁻¹ s⁻¹ | 208 nM | 0.107 s⁻¹ | 515000 M⁻¹ s⁻¹ | 0.3 nM | 0.0002 s⁻¹ | 500000 M⁻¹ s⁻¹

Results, then the binder that gave them:

Row | Kd [1] | koff [1] | kon [1] | Kd [2] | koff [2] | kon [2] | Kd [3] | koff [3] | kon [3] | Kd [4] | koff [4] | kon [4] | Kd [5] | koff [5] | kon [5] | Binder
5 | 42.4 nM | 0.0178 s⁻¹ | 420000 M⁻¹ s⁻¹ | 1.06 nM | 0.00047 s⁻¹ | 442000 M⁻¹ s⁻¹ | 1.05 nM | 0.000504 s⁻¹ | 480000 M⁻¹ s⁻¹ | 21.6 nM | 0.00469 s⁻¹ | 217000 M⁻¹ s⁻¹ | 0.05 nM | 2e-05 s⁻¹ | 500000 M⁻¹ s⁻¹ | AB2.1 (SA2107.01, CD276-040F10_IgG1_A1C) (antibody, V domains shown, Tested unconjugated; also called SA2107 A121C) VH: QVQLVESGAEVKKPGASVKLSCKASGYTFSSYWMHWVRQAPGQRLEWMGEINPGNGHTNYNEKFKSRVTITVDKSASTAYMELSSLRSEDTAVYYCVADPRRPKVPTALFVYWGQGTLVTVSS VL: DIQMTQSPSSVSASVGDRVTISCRASQGIGTWLAWYQQKPGKAPRLLIYAASSLDSGVPSRFSASGSGTDFTLTISSLQPEDFATYYCQQAINFPITFGQGTRLEIKR
6 | – | – | – | – | – | – | – | – | – | – | – | – | 0.04 nM | 3e-05 s⁻¹ | 600000 M⁻¹ s⁻¹ | AB3 (SA2103, CD276-039C05) (antibody, human IgG1, V domains shown, Whole human IgG) VH: QVQLVESGAEVKKPGSSVKVSCKASGGTFSSYAISWVRQAPGQGLEWMGRIIPILGIANYAQKFQGRVTITADKSTSTAYMELSSLRSEDTAVYYCANGGDSSSWYTFDYWGQGTLITVSS VL: DIQMTQSPSTLSASVGDKLTLTCRASQSISRWLAWYQQKPGKAPKLLIYKASYLQTGVPSRFSGSGTGTEFTLTISSLQPDDFATYYCQQYNTFPLTFAGGTKVEIK
7 | – | – | – | – | – | – | – | – | – | – | – | – | 0.06 nM | 7e-05 s⁻¹ | 1e+06 M⁻¹ s⁻¹ | AB4 (SA2545, CD276-039C05_LS_001E10) (antibody, human IgG1, V domains shown, Whole human IgG; also called CD276-39C05-LS-001E10) VH: QVQLVESGAEVKKPGSSVKVSCKASGGTFSSYAISWVRQAPGQGLEWMGRIIPILGIANYAQKFQGRVTITADKSTSTAYMELSSLRSEDTAVYYCANGGDSSSWYTFDYWGQGTLITVSS VL: DIQMTQSPSTLSASVGDRVNITCRASQTINSWLAWYQQKPGKAPKLLIYKASYLQTGVPSRFSGSGAGTEFTLTISSLQPDDFATYYCQQYNSYSLTFGGGTKVEIK
8 | – | – | – | – | – | – | – | – | – | – | – | – | 0.1 nM | 0.0002 s⁻¹ | 1e+06 M⁻¹ s⁻¹ | AB5 (SA2563, CD276-039C05_LS_002A11) (antibody, human IgG1, V domains shown, Whole human IgG; also called CD276-39C05_LS_002A11) VH: QVQLVESGAEVKKPGSSVKVSCKASGGTFSSYAISWVRQAPGQGLEWMGRIIPILGIANYAQKFQGRVTITADKSTSTAYMELSSLRSEDTAVYYCANGGDSSSWYTFDYWGQGTLITVSS VL: DIQMTQSPSTLSASVGDRLTITCRASQNINSWLAWYQQKPGKAPKLLIYKASYLQTGVPSRFSGSGSGTEFTLTITSLQPDDFASYYCQQYDSNPLTFGGGTKVEIK
9 | – | – | – | – | – | – | – | – | – | – | – | – | 0.2 nM | 0.0006 s⁻¹ | 3e+06 M⁻¹ s⁻¹ | AB6 (SA2566, CD276-039C05_LS_002B07) (antibody, human IgG1, V domains shown, Whole human IgG; also called CD276-39C05-LS-002B07) VH: QVQLVESGAEVKKPGSSVKVSCKASGGTFSSYAISWVRQAPGQGLEWMGRIIPILGIANYAQKFQGRVTITADKSTSTAYMELSSLRSEDTAVYYCANGGDSSSWYTFDYWGQGTLITVSS VL: DIQMTQSPSSLSASVGDRVTITCRASQGISSYLAWYQQKPGKAPKLLIYAASTLQSGVPSRFSGSGSGTDFTLTISSLQPEDFATYYCQQYYSFPLTFGGGTKVEIK
